Here are results for one molecule from patent US20190247432A1 (published 2019).

The assay has as its target T1, NY-ESO-1 (the LAGE-1S transcript variant shares the same epitope) peptide on HLA-A*02:01 (human).
T1 peptide: SLLMWITQC
Briefly: multimer staining.

B1: 8F NY-ESO-1 TCR (TCR, V domains shown)
Valpha: EEDPQALSIQEGENATMNCSYKTSINNLQWYRQNSGRGLVHLILIRSNEREKHSGRLRVTLDTSKKSSSLLITASRAADTASYFCATDGAGKSTFGDGTTLTVKP
Vbeta: VIQSPRHEVTEMGQEVTLRCKPISGHDYLFWYRQTMMRGLELLIYFNNNVPIDDSGMPEDRFSAKMPNASFSTLKIQPSEPRDSAVYFCASTIGAQPQHFGDGTRLSIL
In the case of B1, the binding result is listed as “recognises”.
